Experimental data from publication PMC10681739, “High-throughput data and modeling reveal insights into the mechanisms of cooperative DNA-binding by transcription factor proteins”.

Molecular target: RUNX1 (Homo sapiens, UniProt Q01196)
Test: gcPBM; 2 nM RUNX1
Conditions: tags: N-terminal GST (pDEST15), kept (PMC6008103); label: surface-attached array probe

RUNX1, sequence (Q01196 whole entry): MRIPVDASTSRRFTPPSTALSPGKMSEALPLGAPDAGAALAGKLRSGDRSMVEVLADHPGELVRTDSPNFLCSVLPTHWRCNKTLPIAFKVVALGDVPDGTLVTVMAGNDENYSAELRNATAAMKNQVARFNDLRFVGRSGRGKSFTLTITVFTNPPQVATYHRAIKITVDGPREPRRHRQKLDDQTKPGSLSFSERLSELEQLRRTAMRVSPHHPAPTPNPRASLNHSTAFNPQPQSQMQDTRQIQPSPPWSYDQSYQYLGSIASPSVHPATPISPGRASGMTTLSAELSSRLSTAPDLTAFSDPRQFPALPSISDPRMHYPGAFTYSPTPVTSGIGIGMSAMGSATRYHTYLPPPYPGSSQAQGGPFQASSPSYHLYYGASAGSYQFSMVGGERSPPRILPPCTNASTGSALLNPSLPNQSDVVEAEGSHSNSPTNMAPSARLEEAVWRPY

Row | Binder | binding signal
1 | Table S3 C row 62 (dsDNA) DNA 1: GGGAGAAGCGGGAGGCGGAACGCCCGAGGGCGCCCT DNA 2: AGGGCGCCCTCGGGCGTTCCGCCTCCCGCTTCTCCC | 722 PBM fluorescence, median of replicate spots
2 | Table S3 C row 29 (dsDNA) DNA 1: CCGGTCTCGCGATAGCGGAAAGGGCTGTACCATCTG DNA 2: CAGATGGTACAGCCCTTTCCGCTATCGCGAGACCGG | 697 PBM fluorescence, median of replicate spots
3 | Table S3 B row 232 (dsDNA) DNA 1: TGTTGTGTGGTTTCAGAGATACGTCCTTGGGTTGCC DNA 2: GGCAACCCAAGGACGTATCTCTGAAACCACACAACA | 1750 PBM fluorescence, median of replicate spots
4 | Table S3 C row 74 (dsDNA) DNA 1: GTCATCTCGTTGACACTTCCGCTGACCCGTGCAGTT DNA 2: AACTGCACGGGTCAGCGGAAGTGTCAACGAGATGAC | 697 PBM fluorescence, median of replicate spots
5 | Table S3 B row 3109 (dsDNA) DNA 1: ACTCCACCTACCCACAAAACGCACTGCCTCAGAAGC DNA 2: GCTTCTGAGGCAGTGCGTTTTGTGGGTAGGTGGAGT | 2010 PBM fluorescence, median of replicate spots
6 | Table S3 B row 1244 (dsDNA) DNA 1: GGAACCCGCAGAAGCCCCGCCTCCCGTAAGCGGAGC DNA 2: GCTCCGCTTACGGGAGGCGGGGCTTCTGCGGGTTCC | 1640 PBM fluorescence, median of replicate spots
7 | Table S3 B row 808 (dsDNA) DNA 1: TGTGTTAGTGGTTTTCTCTTACGGCAGGCAGTGGGC DNA 2: GCCCACTGCCTGCCGTAAGAGAAAACCACTAACACA | 2040 PBM fluorescence, median of replicate spots
8 | Table S3 C row 106 (dsDNA) DNA 1: ACCAGGCGACGATGCCGGAACGCGCAAGTACGCGAG DNA 2: CTCGCGTACTTGCGCGTTCCGGCATCGTCGCCTGGT | 676 PBM fluorescence, median of replicate spots
9 | Table S3 B row 1720 (dsDNA) DNA 1: GCCTGCGGTGTGGACTCGCATCATGTCCTCTTTCTG DNA 2: CAGAAAGAGGACATGATGCGAGTCCACACCGCAGGC | 1680 PBM fluorescence, median of replicate spots
10 | Table S3 C row 132 (dsDNA) DNA 1: GAGAGACCTGGGCCACTTCCGGGAGAACCCGAGCTT DNA 2: AAGCTCGGGTTCTCCCGGAAGTGGCCCAGGTCTCTC | 721 PBM fluorescence, median of replicate spots
11 | Table S3 B row 3800 (dsDNA) DNA 1: GACCCAGATACCACACCTACCCTGCTGCCTTTTCTA DNA 2: TAGAAAAGGCAGCAGGGTAGGTGTGGTATCTGGGTC | 1960 PBM fluorescence, median of replicate spots
12 | Table S3 C row 8 (dsDNA) DNA 1: GCCAGGCCGGCGGCGCGGAAGGTCTCCTGTGCCTGC DNA 2: GCAGGCACAGGAGACCTTCCGCGCCGCCGGCCTGGC | 689 PBM fluorescence, median of replicate spots
13 | Table S3 B row 3020 (dsDNA) DNA 1: TTTTATCGTCCGCGAGCCCTCATCCCACAACTCTTC DNA 2: GAAGAGTTGTGGGATGAGGGCTCGCGGACGATAAAA | 1790 PBM fluorescence, median of replicate spots
14 | Table S3 C row 172 (dsDNA) DNA 1: TGGCTGAGACTGAGACGGAAGGATCCTTGCGCCCAG DNA 2: CTGGGCGCAAGGATCCTTCCGTCTCAGTCTCAGCCA | 723 PBM fluorescence, median of replicate spots
15 | Table S3 B row 2805 (dsDNA) DNA 1: AGCTTAATGCGGTTGGAGAACACCCTGTCTTATTGA DNA 2: TCAATAAGACAGGGTGTTCTCCAACCGCATTAAGCT | 1930 PBM fluorescence, median of replicate spots
16 | Table S3 B row 1078 (dsDNA) DNA 1: ATTTGTCACCAAACCACAGAGAGGACATGATTGTAA DNA 2: TTACAATCATGTCCTCTCTGTGGTTTGGTGACAAAT | 1740 PBM fluorescence, median of replicate spots
17 | Table S3 B row 1286 (dsDNA) DNA 1: CCCAATTGCCTTTGCTCTGCTGTCTGCCAACCGCAA DNA 2: TTGCGGTTGGCAGACAGCAGAGCAAAGGCAATTGGG | 1860 PBM fluorescence, median of replicate spots
18 | Table S3 B row 1562 (dsDNA) DNA 1: CCACACCCACAAGGCCAGCCTCAATTCCTCACTCCT DNA 2: AGGAGTGAGGAATTGAGGCTGGCCTTGTGGGTGTGG | 1900 PBM fluorescence, median of replicate spots
19 | Table S3 C row 27 (dsDNA) DNA 1: TGCGCCGCGCCCCGGGTTCCGGAATGCACTCTGAAC DNA 2: GTTCAGAGTGCATTCCGGAACCCGGGGCGCGGCGCA | 659 PBM fluorescence, median of replicate spots
20 | Table S3 C row 26 (dsDNA) DNA 1: GACACTGGAGGGAGCCGGAAGTACCTCGGAGTTTTA DNA 2: TAAAACTCCGAGGTACTTCCGGCTCCCTCCAGTGTC | 723 PBM fluorescence, median of replicate spots
21 | Table S3 B row 2632 (dsDNA) DNA 1: TCTGTTTTGTGGGTTCCCTGCCCCCCTTCGGCCTTT DNA 2: AAAGGCCGAAGGGGGGCAGGGAACCCACAAAACAGA | 2250 PBM fluorescence, median of replicate spots
22 | Table S3 B row 1567 (dsDNA) DNA 1: ACGGAGCTGTGGTTTAACGTTTCAGGTTCGTGGCTA DNA 2: TAGCCACGAACCTGAAACGTTAAACCACAGCTCCGT | 1650 PBM fluorescence, median of replicate spots
23 | Table S3 C row 79 (dsDNA) DNA 1: TTGCAAGTACACCTGCATCCGGTGGCATGTTTTAGT DNA 2: ACTAAAACATGCCACCGGATGCAGGTGTACTTGCAA | 712 PBM fluorescence, median of replicate spots

Row | Binder | binding signal
24 | Table S3 C row 194 (dsDNA) DNA 1: TGGGCAAGCCTTGGGCTTCCGGAGCCAAAAGGCCCA DNA 2: TGGGCCTTTTGGCTCCGGAAGCCCAAGGCTTGCCCA | 610 PBM fluorescence, median of replicate spots
25 | Table S3 C row 101 (dsDNA) DNA 1: AGTCAGAAGTTTCAGCGGAAATTGAAGCGCGGCCCT DNA 2: AGGGCCGCGCTTCAATTTCCGCTGAAACTTCTGACT | 665 PBM fluorescence, median of replicate spots
26 | Table S3 B row 736 (dsDNA) DNA 1: CTCTGAACCGCATGATCTCTAAGACCACTTGCTGTT DNA 2: AACAGCAAGTGGTCTTAGAGATCATGCGGTTCAGAG | 1820 PBM fluorescence, median of replicate spots
27 | Table S3 B row 1521 (dsDNA) DNA 1: CTCCGCCTTTCACCTCCTAGTAACCGCCCTCCCTTG DNA 2: CAAGGGAGGGCGGTTACTAGGAGGTGAAAGGCGGAG | 2240 PBM fluorescence, median of replicate spots
28 | Table S3 C row 11 (dsDNA) DNA 1: AAAAGCATCCCCAGACTTCCTGTTGGGAGCTCTCTG DNA 2: CAGAGAGCTCCCAACAGGAAGTCTGGGGATGCTTTT | 697 PBM fluorescence, median of replicate spots
29 | Table S3 B row 116 (dsDNA) DNA 1: GTAGTTCCTTGTCTTTCCTTCTGCCGCCGCAGGCCT DNA 2: AGGCCTGCGGCGGCAGAAGGAAAGACAAGGAACTAC | 1720 PBM fluorescence, median of replicate spots
30 | Table S3 B row 594 (dsDNA) DNA 1: CCCCTCCCCACACCACAACAAACCTGATCCTTGCGC DNA 2: GCGCAAGGATCAGGTTTGTTGTGGTGTGGGGAGGGG | 1700 PBM fluorescence, median of replicate spots
31 | Table S3 C row 121 (dsDNA) DNA 1: CACTCATTCCAGATCAGGAAGTGATCAGTGCCTCAA DNA 2: TTGAGGCACTGATCACTTCCTGATCTGGAATGAGTG | 680 PBM fluorescence, median of replicate spots
32 | Table S3 B row 2568 (dsDNA) DNA 1: GTCGCCTGCGGTGACTCAGCTCTTACGGTCACCGCC DNA 2: GGCGGTGACCGTAAGAGCTGAGTCACCGCAGGCGAC | 1800 PBM fluorescence, median of replicate spots
33 | Table S3 B row 2476 (dsDNA) DNA 1: CAGGTCACCGCAGTCCCCACCACTGCCTGTTATTGT DNA 2: ACAATAACAGGCAGTGGTGGGGACTGCGGTGACCTG | 1870 PBM fluorescence, median of replicate spots
34 | Table S3 C row 70 (dsDNA) DNA 1: GGCCGCGCCCAGACCCGGAAGCGGGGCCGTCACGTG DNA 2: CACGTGACGGCCCCGCTTCCGGGTCTGGGCGCGGCC | 680 PBM fluorescence, median of replicate spots
35 | Table S3 C row 188 (dsDNA) DNA 1: GCAAGCGGGCCTGGGCGGATGTCTCGGGCGCGTCGG DNA 2: CCGACGCGCCCGAGACATCCGCCCAGGCCCGCTTGC | 720 PBM fluorescence, median of replicate spots
36 | Table S3 B row 2668 (dsDNA) DNA 1: TACAGTCTCTGTGGTTTACTGAGAGGAGGTGGTTCT DNA 2: AGAACCACCTCCTCTCAGTAAACCACAGAGACTGTA | 2160 PBM fluorescence, median of replicate spots
37 | Table S3 C row 20 (dsDNA) DNA 1: TACCTCTGTAACAGGTTTCCTGTCCCTGCCCAGCTT DNA 2: AAGCTGGGCAGGGACAGGAAACCTGTTACAGAGGTA | 673 PBM fluorescence, median of replicate spots
38 | Table S3 C row 128 (dsDNA) DNA 1: GGTCCCGCCCCTGGCCGGAAGTTCTGGCGGCGGAGC DNA 2: GCTCCGCCGCCAGAACTTCCGGCCAGGGGCGGGACC | 714 PBM fluorescence, median of replicate spots
39 | Table S3 B row 2151 (dsDNA) DNA 1: CTAAGGCTGTGGTTTGTACCCTAGCAGCAAAGGCAG DNA 2: CTGCCTTTGCTGCTAGGGTACAAACCACAGCCTTAG | 2080 PBM fluorescence, median of replicate spots
40 | Table S3 C row 198 (dsDNA) DNA 1: GGCAGCAGCCTTCGGCTTCCGCTTTTCGGCTTTCGC DNA 2: GCGAAAGCCGAAAAGCGGAAGCCGAAGGCTGCTGCC | 686 PBM fluorescence, median of replicate spots
41 | Table S3 B row 887 (dsDNA) DNA 1: CACCCTGCCACCTCCCTAAACTCCCCGCACAGGCCG DNA 2: CGGCCTGTGCGGGGAGTTTAGGGAGGTGGCAGGGTG | 1620 PBM fluorescence, median of replicate spots
42 | Table S3 B row 3059 (dsDNA) DNA 1: AGGCTGTGGTTATCTGCAAACAGCCCCCGTCCATCC DNA 2: GGATGGACGGGGGCTGTTTGCAGATAACCACAGCCT | 1590 PBM fluorescence, median of replicate spots
43 | Table S3 C row 65 (dsDNA) DNA 1: TTCACTGAACGGCTTCATCCTGTGCTTTGGGAGGCA DNA 2: TGCCTCCCAAAGCACAGGATGAAGCCGTTCAGTGAA | 718 PBM fluorescence, median of replicate spots
44 | Table S3 C row 100 (dsDNA) DNA 1: TGGCTAGGGGCAGGGCTTCCGGCCTCGAACTTTAAC DNA 2: GTTAAAGTTCGAGGCCGGAAGCCCTGCCCCTAGCCA | 688 PBM fluorescence, median of replicate spots
45 | Table S3 C row 180 (dsDNA) DNA 1: CTGTGCAGCGTCCTCCTTCCGGGTGCAGGCGGGCCT DNA 2: AGGCCCGCCTGCACCCGGAAGGAGGACGCTGCACAG | 722 PBM fluorescence, median of replicate spots
